Assay results published in US20240294650A1 (Alector, published 2024).
Changes are numbered by the printed parent chain.

T1: human MerTK (human, UniProt Q12866 21-999)
T1 sequence: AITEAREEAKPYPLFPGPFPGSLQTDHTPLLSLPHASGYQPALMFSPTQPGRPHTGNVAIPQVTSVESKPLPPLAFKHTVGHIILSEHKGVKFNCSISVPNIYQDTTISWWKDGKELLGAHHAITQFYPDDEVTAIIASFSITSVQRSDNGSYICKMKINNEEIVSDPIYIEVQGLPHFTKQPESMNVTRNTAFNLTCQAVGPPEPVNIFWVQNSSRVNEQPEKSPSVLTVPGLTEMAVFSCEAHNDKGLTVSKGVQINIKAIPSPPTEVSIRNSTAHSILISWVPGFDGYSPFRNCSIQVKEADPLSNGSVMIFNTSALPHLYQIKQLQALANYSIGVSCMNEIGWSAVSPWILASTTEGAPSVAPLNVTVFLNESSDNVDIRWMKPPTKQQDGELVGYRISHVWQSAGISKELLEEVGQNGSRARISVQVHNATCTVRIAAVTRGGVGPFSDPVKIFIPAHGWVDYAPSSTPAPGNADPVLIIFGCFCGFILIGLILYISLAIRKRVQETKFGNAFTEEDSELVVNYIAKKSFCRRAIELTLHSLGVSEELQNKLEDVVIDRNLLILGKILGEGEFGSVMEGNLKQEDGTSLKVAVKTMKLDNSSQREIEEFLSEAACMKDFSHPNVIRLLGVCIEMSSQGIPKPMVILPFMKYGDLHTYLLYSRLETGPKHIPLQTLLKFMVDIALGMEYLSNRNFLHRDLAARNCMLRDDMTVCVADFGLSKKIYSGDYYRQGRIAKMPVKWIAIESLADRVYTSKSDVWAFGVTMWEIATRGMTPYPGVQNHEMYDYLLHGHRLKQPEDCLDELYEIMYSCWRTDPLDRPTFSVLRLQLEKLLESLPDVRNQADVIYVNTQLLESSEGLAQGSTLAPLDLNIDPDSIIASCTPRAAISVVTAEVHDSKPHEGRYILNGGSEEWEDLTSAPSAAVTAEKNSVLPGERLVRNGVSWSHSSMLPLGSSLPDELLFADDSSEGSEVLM

T2: endogenous murine MerTK on bone marrow-derived macrophages (mouse, UniProt Q60805 19-994)
T2 construct: whole, on cells; MFI on MerTK KO BMDM subtracted; also called BMDM WT-KO
T2 sequence (looked up): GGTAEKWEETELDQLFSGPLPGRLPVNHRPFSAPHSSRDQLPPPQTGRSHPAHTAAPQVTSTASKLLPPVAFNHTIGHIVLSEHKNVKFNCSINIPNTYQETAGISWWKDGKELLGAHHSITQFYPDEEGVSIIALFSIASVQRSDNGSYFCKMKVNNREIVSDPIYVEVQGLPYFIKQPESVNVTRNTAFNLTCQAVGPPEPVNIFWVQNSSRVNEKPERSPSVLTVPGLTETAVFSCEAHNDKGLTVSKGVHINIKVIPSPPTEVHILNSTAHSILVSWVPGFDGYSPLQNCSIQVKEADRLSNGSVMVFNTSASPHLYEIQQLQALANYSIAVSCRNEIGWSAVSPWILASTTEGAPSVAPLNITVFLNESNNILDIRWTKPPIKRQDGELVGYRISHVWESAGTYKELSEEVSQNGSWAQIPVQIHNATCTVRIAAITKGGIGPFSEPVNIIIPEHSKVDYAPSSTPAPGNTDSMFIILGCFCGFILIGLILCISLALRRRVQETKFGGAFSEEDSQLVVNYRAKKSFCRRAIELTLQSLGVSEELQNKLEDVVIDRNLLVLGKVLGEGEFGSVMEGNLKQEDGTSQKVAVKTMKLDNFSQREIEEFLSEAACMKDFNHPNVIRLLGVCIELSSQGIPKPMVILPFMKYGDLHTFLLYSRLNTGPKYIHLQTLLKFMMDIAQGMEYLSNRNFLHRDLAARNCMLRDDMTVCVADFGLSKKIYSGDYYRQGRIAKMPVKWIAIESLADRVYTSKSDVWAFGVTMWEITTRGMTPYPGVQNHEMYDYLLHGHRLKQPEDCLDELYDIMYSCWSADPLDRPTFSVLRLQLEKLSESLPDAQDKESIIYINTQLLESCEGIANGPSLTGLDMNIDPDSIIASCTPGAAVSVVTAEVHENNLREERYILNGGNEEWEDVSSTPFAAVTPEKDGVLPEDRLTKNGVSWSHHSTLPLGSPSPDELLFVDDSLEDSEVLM

B1: MTK-206 (antibody, human IgG1, V domains shown)
VH: QVQLQQSGAELARPGASVKMSCKASGYTFTSYTMHWVKQRPGQGLEWIGYINPSSGYIKNSQKFKDKATLTADKSSSTAYMQLSSLTSEDSAVYYCARTVYGYYGSSPDYWGQGTTLTVSS
VL: DIQMTQSPSSLSASLGERVSLTCRASQDIGSNLNWLQQEPDGTIKRLIYATSSLESGVPKRFSGSRSGSDYSLTISSLESEDFVDYYCLQYDSSPWTFGGGTKLEIK
B2: MTK-218 (antibody, human IgG1, V domains shown)
VH: QVQLQQSGPELVKPGTSVKISCKASGYSFTSYYIHWVKQRPGQGLDWIGWIFPGNRNTQYNEKFKGKATLTADTSSSTAYMQLSSLTSEDSAVYYCARLGLIYALDYWGQGTSVTVSS
VL: DAVMTQTPLSLPVSLGDQASISCRSSQSLENSNGHTYLHWYLQKPGQSPQLLIYRVSNRFSGVQDRFSGSGSGTDFTLKISRVEAEDLGVYFCLQVTHVPFTFGSGTKLEIK
B3: MTK-226 (antibody, human IgG1, V domains shown)
VH: B2 VH with T16A, D46E, R56G, Q59K, K63N, K65R
VL: B2 VL with N31S, H35N, Q64L, K79Q
B4: MTK-229 (antibody, human IgG1, V domains shown)
VH: QVQLQQSGPELVKPGASVKISCKASGYEFSRSWMNWVKQRPGKGLEWIGRIYPGDGDTNYKGKLKGQATLTADKSSSTAYMQLSSLTFEDSAVYFCARGGGYYYDSRYEGFVYWGQGTVVTVSA
VL: QIVLTQSPAIMSASPGEEVTMTCSASSSVSYMHWYQQKSGTSPKRWIYDTSKLASGVSGRFSGSGSGTSYSLTISSMEAEDAATYYCQQWSSNPPITFGAGTKLELK
B5: MTK-220 (antibody, V domains shown)
VH: EVQLVESGGGLVKPGGSLKLSCAASGFTFSDYGMHWVRQAPEKGLEWVAFISGGSGTIYYEDTVKGRFTISRDNAKNTLFLQMTSLRSEDTAMYYCTRGGNYFDYWGQGTTLTVSS
VL: NIMLTQSPSSLAVSAGEKVTMTCKSSQSVLYSSNQKNYLAWYQQKPGQSPKLLIYWASTRESGVPDRFTGSGSGTDFTLTISNVQAEDLAVYYCHQYFSSWTFGGGTKLEIK
B6: MTK-202 (antibody, human IgG1, V domains shown)
VH: EVQLVESGGGLVKPGGSLKLSCAASGFTFSDFGMHWVRQVPEKGLEWVAFISGGSNTIYYTDTVKGRFTISRDNAKNTLFLQMTSLRSEDTAMYYCVRNGNSFAYWGQGTLVTVSA
VL: B5 VL with L4M, T22N, V84I, V91I, S99F
B7: MTK-204 (antibody, human IgG1, V domains shown)
VH: B5 VH with F50Y, G53S, S55T, G56S, T97A, N101L, Y102L
VL: B5 VL with L4M, T22S, Y55Q, G74E, S82R, N83S
B8: MTK-212 (antibody, human IgG1, V domains shown)
VH: QVQLQQSGPELVKPGASVKISCKASGYAFSSSWVNWVKQRPGKGLEWIGRIYPGDGDSNYNGNFKGKATLTADKSSNTAYLQLSSLTSEDSAVYFCARKSHFIYYTLDYWGQGTPVTVSS
VL: DIVMTQSHKFKSTSVGDRVSIACKASQDVGTSVAWYQQKPGKSPKLLIYWASSRHTGVPDRFTGSGSGTDFTLTISNVQSEDLTDYFCQQYSTYPYTFGGGTKLEIK
B9: MTK-219 (antibody, human IgG1, V domains shown)
VH: QVQLQQSGADLMKPGASVKLSCKATGNTFTGYWIEWVKQRPGHGLEWIGEILTGSGSTNYNERFKGKATFTADTSSNTAYMQLSSLTTEDSAIYYCAGSYFTNSWFPYWGQGSLVTVSA
VL: DIVLTQSPASLAVSLGQRATISCRASESVDSYGNSFMHWYQQKPGQPPKLLIYRAYTLESGIPARFSGSGSRTDFTLTINPVEADDVATYYCQQSNEDPRTFGGGTKLEIK
B10: MTK-222 (antibody, human IgG1, V domains shown)
VH: B9 VH with N27Y, T58S, R63K, T74S, Y80F, F101Y, T102S
VL: B9 VL with A9V, N34S, Y56S, T57S, A84T
B11: MTK-211 (antibody, human IgG1, V domains shown)
VH: QVQLQQSGAELMKPGASVKLSCKATGYTFTGYWIEWVKQRPGHGLEWIGEILPGSGGSNYNEKFKGKATFTADTSSNTAYIQLSSLTTEDSAIYCCARGEPSYFSDAGFAYWGQGTLVTVSA
VL: QIVLTQSPAVMSASPGEKVTMTCSASSSITYMHWYQQKPGTSPKRWIYDTSKLASGVPARFSGSGSGTSYFLTISSMEAEDVATYYCHQRSTYPYTFGGGTKLEIM
B12: MTK-213 (antibody, human IgG1, V domains shown)
VH: QVQLQQPGAELVKPGASVKMSCKASGYTFTSYWITWVKQRPGQGHEWIGEIYPGIGSTNYNEKFKSKATLTVDTSSRTAYMQLSSLTSEDSAVYFCARGAYTKYYFDYWGQGTTLTVSS
VL: DIVMTQSHKFMSTSVGDRVSITCKASQDVGDAVAWYQQKPGQTPKLLIYWASTRHTGVPDRFTGSGSGTDFTLTISNVQSEDLADYFCQQYSSYLMYTFGGGTKLEIK
B13: MTK-223 (antibody, human IgG1, V domains shown)
VH: DVQLQESGPGLVKPSQSLSLTCSVTGYSITSGYYWNWIRQFPGNKLEWMGYISYDGTNNYNPSLKNRISITRDTSENQFFLKLNSVTTEDTATYFCVRGAGYWGQGTTLTVSS
VL: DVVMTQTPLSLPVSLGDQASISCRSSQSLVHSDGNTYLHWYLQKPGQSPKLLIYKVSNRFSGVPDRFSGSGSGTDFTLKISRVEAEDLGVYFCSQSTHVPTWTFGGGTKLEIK
B14: MTK-231 (antibody, human IgG1, V domains shown)
VH: B13 VH with N58Y, N61H, E76K, K82T, Y94F, F95Y, V97T, A100G, T108S, L109V
VL: DVVMTQTPLSLPVSLGDQASISCRSSQSLVHSDGNTYLHWYLQKPGQSPKLLIYKVSNRFSGVPDRFSGSGSGTDFTLKISRLEAEDLGIYFCSQTTHIPLTFGSGTKLEIK

target: T1, human MerTK; experiment: cell-based or functional assay

| Binder | Fold increase in PAKT over IgG control [fold] | EC50 (nM), pAKT in SK-MEL-5 cells [nM] |
| --- | --- | --- |
| B1 | 3.1 |  |
| B2 | 4.5 |  |
| B3 | 4.2 | 0.53 |
| B4 | 4.1 | 1.89 |
| B5 | 3.6 |  |
| B6 | 3 | 1.01 |
| B7 | 3 |  |
| B8 | 3.3 | 96.9 |
| B9 | 3.5 |  |
| B10 | 4.6 |  |
| B11 | 4 |  |
| B12 | 3.7 |  |
| B13 | 4.1 |  |
| B14 | 3 | 0.65 |

target: T2, endogenous murine MerTK on bone …; experiment: FACS, mouse BMDM, WT minus MerTK KO
In short: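 MFI from flow cytometry, reported as WT minus KO, after antibody (10 μg/ml, 60 min on ice) and PE goat anti-human IgG (30 min on ice, Fc block present). Macrophages came from WT and MerTK-knockout mouse marrow cultured seven days in 50 ng/ml M-CSF.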

| Binder | MFI [MFI] |
| --- | --- |
| B1 | 431 |
| B2 | 11800 |
| B3 | 10400 |
| B4 | 2870 |
| B5 | 757 |
| B6 | 4510 |
| B7 | 602 |
| B8 | 9090 |
| B9 | 6180 |
| B10 | 3680 |
| B11 | 4490 |
| B12 | 8450 |
| B13 | 316 |
| B14 | 639 |
